Source: patent publication US20070248589A1 (GOVERNMENT OF THE UNITED STATES OF AMERICA AS REPRESENTED …, published 2007)

T1: GST-SPATIAL(L) (Mus musculus, UniProt Q7TSD4)
T1 construct: made in house
T1 sequence (Q7TSD4 with tags, fused parts or gaps isoform Q7TSD4-6 limits assumed): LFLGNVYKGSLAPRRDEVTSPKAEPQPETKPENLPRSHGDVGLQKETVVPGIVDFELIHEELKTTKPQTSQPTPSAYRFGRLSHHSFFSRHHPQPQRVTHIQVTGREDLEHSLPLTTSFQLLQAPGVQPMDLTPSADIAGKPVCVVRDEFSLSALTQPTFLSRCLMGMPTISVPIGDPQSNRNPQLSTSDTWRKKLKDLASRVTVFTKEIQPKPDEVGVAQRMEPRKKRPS

T2: HA-tagged SPATIAL (Mus musculus, UniProt Q7TSD4)
T2 construct: expressed in transfected cells; host or cells: 293T human kidney epithelial cells, calcium phosphate transfection
T2 sequence (Q7TSD4 with tags, fused parts or gaps isoform Q7TSD4-6 limits assumed): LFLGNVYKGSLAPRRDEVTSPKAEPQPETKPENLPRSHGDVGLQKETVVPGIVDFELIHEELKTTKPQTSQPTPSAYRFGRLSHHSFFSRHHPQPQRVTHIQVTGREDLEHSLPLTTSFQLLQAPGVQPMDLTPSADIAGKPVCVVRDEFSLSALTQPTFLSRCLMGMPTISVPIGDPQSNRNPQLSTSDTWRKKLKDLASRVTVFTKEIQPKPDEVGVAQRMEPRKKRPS
T2 sequence (Q8C878 224-462 P243X partner limits assumed): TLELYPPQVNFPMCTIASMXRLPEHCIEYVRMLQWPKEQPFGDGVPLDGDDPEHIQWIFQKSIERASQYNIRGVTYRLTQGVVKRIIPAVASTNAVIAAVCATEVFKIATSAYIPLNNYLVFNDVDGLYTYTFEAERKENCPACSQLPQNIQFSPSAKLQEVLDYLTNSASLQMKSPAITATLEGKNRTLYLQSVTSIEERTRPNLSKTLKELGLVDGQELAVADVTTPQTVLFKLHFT


Assays:
[1] = target: T1, GST-SPATIAL(L); assay: GST pulldown assay with GST-SPATIAL long isoform; assay type: binding; settings: 35S-methionine labeled in vitro translated protein
Description: Eighteen cDNA clones identified in the yeast two-hybrid system were tested in an in vitro glutathione-S-transferase (GST) pulldown assay, as described in Ausubel et al., Current Protocols in Molecular Biology, Greene Publishing Associates, updated November 2003, Chapter 20, Analysis of Protein Interactions, Unit 20.2, Affinity Purification of Proteins Binding to GST Fusion Proteins.
Briefly, a GST-SPATIAL fusion construct was produced by cloning SPATIAL cDNA(s) into pGEx5X1 expression vector using standard molecular cloning techniques. GST or GST-SPATIAL fusion protein were expressed in 1-1000 ml bacterial cultures grown for 3-4 hours until OD600 reached 0.5. Then, plasmid expression was induced for 1.5-4 hours by the addition of ITPG to a final concentration of 0.11 mM. GST or GST-fusion proteins were purified using glutathione-Sepharose beads as described in Ausubel et al., Current Protocols in Molecular Biology, Greene Publishing Associates, updated November 2003, Chapter 20, Analysis of Protein Interactions, Unit 20.2, Affinity Purification of Proteins Binding to GST Fusion Proteins.
A coupled in vitro transcription and translation system (Promega) was used according to the manufacturer's instructions to produce radiolabeled protein from cDNAs to be tested. Radiolabeled proteins were mixed with either purified GST or GST-SPATIAL. Then, GST-containing protein complexes were purified by centrifugation from the reaction mixtures using glutathione-coated Sepharose beads. Bound proteins were eluted from the beads with SDS-PAGE loading buffer heated to 72-85° C., separated on polyacrylamide gels, and visualized by autoradiography. Specific interactions between GST-SPATIAL and in vitro translated proteins were indicated by the presence of a radiolabeled in vitro translated protein in the GST-SPATIAL-containing samples, but not in the GST-alone samples.
GST pulldown assays were performed as described in Example 9 using GST-SPATIAL(L) and GST-SPATIAL(S) and each of the Uba3 mutants described in this example.

[2] = target: T2, HA-tagged SPATIAL; assay: Co-immunoprecipitation of SPATIAL and Uba3 from transfected 293T cells; assay type: binding; settings: only in samples that contained HA-tagged SPATIAL, FIG. 15
Description: Expression vectors encoding Myc-346 and HA-tagged SPATIAL were transfected alone or in combination into 293T cells by calcium phosphate precipitation (Mammalian Transfection Kit; Stratagene, La Jolla, Calif.) in accordance with manufacturer's instructions. Total protein lysates were prepared and immunoprecipitated with an anti-HA antibody, as described in Ausubel et al., Current Protocols in Molecular Biology, Greene Publishing Associates, updated November 2003, Chapter 20, Analysis of Protein Interactions, Unit 20.5, Detection of Protein-Protein Interaction by Coprecipitation. The immunoprecipitated proteins were separated by SDS-PAGE and transferred to a membrane for Western blotting using an anti-Myc antibody.

[3] = tested on: 293T cells; assay: Cell growth analysis: number of fluorescent (EGFP-positive) cells after transient transfection; assay type: cell-based, human
Description: Human embryonic kidney (293T) cells were maintained in DMEM supplemented with 10% heat-inactivated FBS, 2 mM glutamine, 100 U/ml penicillin, and 0.1 mg/ml streptomycin Cells were grown at 37° C. in a humidified atmosphere with 5% CO2.
The day before transfection, the cells were trypsinized (if needed), counted and plated in a 24-well plate at the density of 7.5×10^4 cells per well with 0.5 ml of their normal growth medium containing serum without antibiotics. On the day of transfection, cells were transfected according to the recommended protocol using 1.0 μg of each plasmid DNA and 3 μl of Lipofectamine 2000 in each well. The cells were kept at 37° C. in a CO2 incubator for 24 hours. […] The number of EGFP-positive cells was calculated using fluorescence-activated cytometry (FACS) analysis at various time points after transfection.
In representative experiments, approximately 0.5-1×10^6 293T cells were transiently transfected with approximately 1-10 μg of either SPATIAL EGFP expression vector or EGFP expression vector by calcium phosphate precipitation using the Mammalian Transfection Kit (Stratagene) in accordance with the manufacturer's instructions. The number of fluorescent EGFP- or SPATIAL-EGFP-transfected cells was monitored over time using flow cytometry or microscopic examination. […]

[4] = tested on: 293T cells; assay: Propidium iodide staining for apoptosis; assay type: cell-based, human; settings: 24 to 72 hours after transfection
Source text: Propidium iodide is a commonly known fluorescent compound, which intercalates into double-stranded nucleic acids. It is excluded by viable cells but can penetrate cell membranes of dying or dead cells. Thus, apoptotic cells may be identified by staining (and, in particular, nuclear staining) with propidium iodide.
Approximately 0.5-1.0×10^6 293T cells were transfected with SPATIAL-EGFP using either calcium phosphate (Mammalian Transfection Kit; Stratagene, La Jolla, Calif.) or Lipofectanine (Invitrogen, Rockville, Md.) in accordance with the manufacturers' instructions. Twenty-four (24) to 72 hours after transfection, the transfected cells were sorted. Approximately 1-5×10^5 sorted cells were resuspended in a solution contain 50 μg/ml propidium iodine, 0.1% sodium citrate and 0.1% Triton X-100 and incubated overnight to lyse the cells and stain the nuclei. Then, the sample was analyzed by flow cytometry to identify sub-diploid amounts of DNA which indicates cell death via apoptosis.

[5] = tested on: caspase; assay: Caspase activation flow cytometry assay (PhiPhi Lux); assay type: cell-based; settings: SPATIAL-EGFP transfected cells
Source text: Caspase activation plays a central role in the execution of apoptosis (e.g., Budihardjo et al., Ann. Rev. Cell. Dev. Biol., 15:269-90, 1999).

[6] = tested on: Wehi7.2 cells; assay: Bcl-2 expression assay, SPATIAL-EGFP transfected thymocyte cell line; assay type: cell-based, mouse; settings: transient transfection by electroporation
Description: (§1) The mouse thymocyte cell line Wehi 7.2 and its variant Wbcl-2, which over expresses bcl-2, were maintained in DMEM supplemented with 10% heat-inactivated FBS, 2 mM glutamine, 100 U/ml penicillin, and 0.1 mg/ml streptomycin. Cells were grown at 37° C. in a humidified atmosphere with 5% CO2.
(§2) Transient transfections were performed using either lipids (Lipofectamine 2000 or FreeStyle 293 Expression System, each supplied by Invitrogen, Rockville, Md.) or calcium phosphate (Mammalian Transfection Kit; Stratagene, La Jolla, Calif.) or electroporation. Manufacturer instructions were followed for lipid and calcium phosphate transfections. For electroporation, the following procedure was used: Before transfection, Wehi cell and Wbcl-2 cells were counted and suspended in fresh complete DMEM without antibiotics at 5×10^5 cells/ml in a 15 cm dish. On the day of transfection, the cells were washed with PBS twice and were suspended in serum free DMEM at 6.25×10^6 cells/mL Aliquots of 800 μl cell suspension were transferred to a 4 mm electroporation cuvette and 10 μg of plasmid DNA solution was added. After 10 minutes incubation on ice, the cells were electroporated under the condition of 310 V, 725 ohms resistance, and 1050 μF capacitance. The transfected cells were incubated on ice for 10 minutes and suspended in complete DMEM in 10 cm dishes at the density of 7.5×10^4 viable cells/ml. […]

[7] = tested on: Hb12 cells; assay: Bcl-2 expression assay, SPATIAL-EGFP transfected Bcl-2 expressing thymocyte cell line; assay type: cell-based, mouse; settings: transient transfection by electroporation
Description: as §1, §2

[8] = tested on: 293T cells; assay: DiI cell division analysis by FACS; assay type: cell-based, human; settings: 4-day period, FIG. 7
Description: 293T cells were transfected with expression plasmid for EGFP alone (pEGFPN1; Clontech) or EGFP-SPATIAL(L). Twenty four (24) hours later, transfected cells were reacted with 3H-Indolium, 2-[3(1,3-dihydro-3,3-dimethyl-1-octacdecyl-2H-indol-2-ylidene)-propenyl]-3,3-dimethyl-octacdecyl-, perchlorate (DiI; Molecular Probes, Eugene, Oreg.) a fluorescent compound that […] binds to lipids. EGFP-positive and/or EGFP-negative cells were analyzed by FACS on the day after transfection and 1 hour after DiI labeling (Day 0) and four days after transfection (Day 4) as indicated.
To directly examine division of SPATIAL EGFP transfected cells, the lipophilic dye, 3H-Indolium, 2-[3-(1,3-dihydro-3,3-dimethyl-1-octacdecyl-2H-indol-2-ylidene) 1-propenyl]-3,3-dimethyl-1-octacdecyl-, perchlorate (DiI). DiI becomes highly fluorescent when it interacts with cell membranes and is equally portioned to each daughter cell during cell division. This property has been used to monitor cell divisions based on the reduction of dye in successive generations, which can be monitored using FACS analysis (Huang et al., Blood, 94(8):2595-2604, 1999). DiI was chosen so that the generational analysis could be done on EGFP-positive cells.

interaction with GST-SPATIAL(L) [1] | co-immunoprecipitation by anti-HA antibody [2] | caspase activation [5] | Molecule | increase in the number of fluorescent cells ([3]; four day period post-transfection, FIG. 6) | increase in the number of fluorescent transfected cells ([3]; two-week period post-transfection, G418 selection) | apoptosis based on nuclear morphology of propidium iodide stained cells [4] | cell growth of transfected cells [6] | cell growth of transfected cells [7] | cell division of EGFP-positive cells [8]
specifically interacted | reproducibly immunoprecipitated | – | Myc-346: Myc-tagged Uba3-clone 346, carboxyl terminus of Uba3, residues 203 to 441 of SEQ ID NO: 6 (protein, listed as Mus musculus, not fully specified (N-terminus); also: Myc tag) TLELYPPQVNFPMCTIASMPRLPEHCIEYVRMLQWPKEQPFGDGVPLDGDDPEHIQWIFQKSIERASQYNIRGVTYRLTQGVVKRIIPAVASTNAVIAAVCATEVFKIATSAYIPLNNYLVFNDVDGLYTYTFEAERKENCPACSQLPQNIQFSPSAKLQEVLDYLTNSASLQMKSPAITATLEGKNRTLYLQSVTSIEERTRPNLSKTLKELGLVDGQELAVADVTTPQTVLFKLHFT | – | – | – | – | – | –
– | – | No caspase activation was detected | SPATIAL-EGFP: SPATIAL isoform fused to enhanced green fluorescent protein, expressed from pEGFPN1 (protein, left off: large carriers, SPATIAL isoform fused to enhanced green fluorescent protein, expressed from pEGFPN1) LFLGNVYKGSLAPRRDEVTSPKAEPQPETKPENLPRSHGDVGLQKETVVPGIVDFELIHEELKTTKPQTSQPTPSAYRFGRLSHHSFFSRHHPQPQRVTHIQVTGREDLEHSLPLTTSFQLLQAPGVQPMDLTPSADIAGKPVCVVRDEFSLSALTQPTFLSRCLMGMPTISVPIGDPQSNRNPQLSTSDTWRKKLKDLASRVTVFTKEIQPKPDEVGVAQRMEPRKKRPS | no increase | 2-3 fold | no evidence of apoptosis | profound suppression of cell growth | profound suppression of cell growth | effectively blocked the majority of transfected cells from dividing
